± gives the half width of the 95% confidence interval.
How the values were obtained:
[1] = folding stability dG unfold from chymotrypsin proteolysis; higher = more stable
Method in brief: (§1)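 Digests were run with trypsin and chymotrypsin at 11 concentrations in threefold dilutions, plus a no-protease condition, on designed mini-proteins in a PA-tagged cDNA display construct. The mini-proteins were under 80 residues, had no cysteine, and were kept only when AlphaFold2 dimer inter-PAE was above 15. After sequencing, Bayesian fitting of the counts gave K50, from which unfolding free energy was derived against a sequence-predicted unfolded-state K50 and a shared folded-state K50, per protease or combined.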

[2] = folding stability dG unfold from trypsin proteolysis; higher = more stable
Method in brief: as §1

[3] = folding stability dG unfold (combined trypsin and chymotrypsin); higher = more stable
Method in brief: as §1

Sequence	folding stability dG unfold [1]	folding stability dG unfold [2]	folding stability dG unfold [3]
SAGGMVLVRFDSLEEAREHAELLEELGYEVELLPTEDYVLLLVRPLPLPPPTPEELAEALRNPGSALASAGG [r13_8_TrMRF]	2.671 ± 0.014 kcal/mol	2.33 ± 0.062 kcal/mol	2.53 ± 0.066 kcal/mol
SAGGMVTKTYEFEGENGGKILIEVKEDPDKPVVTVKFYRPDGKPLFEAEIEADSIEDAIQQAKDLLASAGGS [r16_158_TrMRF]	3.76 ± 0.11 kcal/mol	3.45 ± 0.12 kcal/mol	3.66 ± 0.13 kcal/mol
SAGGMVVRIKVKIKNPETGEVIEVEALVEVDEDGNVTITLPNGKKITLPKGAKVEIVDVEELPPEDLSAGGS [r16_223_TrROS_Hall]	3.14 ± 0.075 kcal/mol	3.72 ± 0.11 kcal/mol	3.52 ± 0.093 kcal/mol
SAGGMVYVVRLRDEDGTEYTALVEEFDGIYRVRLFDEDGELVEEREFESVEEAIDALLAEGYEVEVYPSAGG [r13_315_TrMRF]	4.881 ± 0.035 kcal/mol	4 ± 0.079 kcal/mol	4.66 ± 0.07 kcal/mol
SAGGMYRVKVGDDERLIDTDPENFKTLEEAVKKVAEKIKEEYPNRPELTITVEAEDGTPLATVTITLSSAGG [r13_257_JUSTAS]	0.614 ± 0.19 kcal/mol	0.759 ± 0.12 kcal/mol	0.894 ± 0.29 kcal/mol
SAGGNDDDQKPKMVRVKIKYDNPDGEKYKIDEIWVMPPPFIMIRMPGNGQEIFIPPDQIKEIEIEPVSAGGS [r8_410_TrROS]	1.09 ± 0.081 kcal/mol	-0.149 ± 0.28 kcal/mol	0.826 ± 0.3 kcal/mol
SAGGNDDNWRVIEFTFSPGNIKPEQIRSLLENAGADRITDVEVQRTPNSYTVTFYFPNGKPVEITIPSAGGS [r8_86_TrROS]	2.37 ± 0.1 kcal/mol	1.65 ± 0.038 kcal/mol	2.13 ± 0.13 kcal/mol
SAGGNFEIWRHPENGILWIEFRIPAGEPLEIPLKFKAPNGKPIKITKFHIWPMNDWWYIKFIIKIPPSAGGS [r16_499_TrROS]	2.84 ± 0.06 kcal/mol	3.15 ± 0.12 kcal/mol	2.99 ± 0.25 kcal/mol
SAGGNIEVDNDMIEIPFPGGFTIMIRLPPDKGKVTVHIERDPNNPMFREFAKEIADQLPGLPVEVHPWSAGG [r13_34_TrROS]	0.414 ± 0.14 kcal/mol	0.996 ± 0.11 kcal/mol	0.752 ± 0.08 kcal/mol
SAGGNIKIEDIEIMKPMKDPDGNPDKPMYMVSIRIEHEYKYPDGPMKHKHEIMIMMPPNDPDEALDELSAGG [r13_149_TrROS]	0.758 ± 0.041 kcal/mol	0.897 ± 0.081 kcal/mol	0.877 ± 0.11 kcal/mol
SAGGNIRIWFPGREIPIGGTVEDIKANIRKWLGRPIPEELIEQIDKGKTVSEIVDWLRKRGFPIRIWSAGGS [r16_601_TrROS]	1.94 ± 0.16 kcal/mol	1.78 ± 0.031 kcal/mol	1.87 ± 0.11 kcal/mol
SAGGNKEHKVTLEIYIMMWPDPDNGQPYPMPLEIEAPYKNNDPEAAEADIKELLKEIPIPPWMKDMISAGGS [r16_40_TrROS]	0.692 ± 0.15 kcal/mol	1.19 ± 0.12 kcal/mol	0.988 ± 0.39 kcal/mol
SAGGNMWEQIRMIVRELAKEGHPWITFDKIHKELGRPITPEWREWLRDAGFIEHDPNGSMTFRIPPGASAGG [r13_188_TrROS]	0.89 ± 0.1 kcal/mol	1.36 ± 0.032 kcal/mol	1.17 ± 0.056 kcal/mol
SAGGNPASATVTINEDILVNGSPEEARALVEARAKAEGITITDVTITPVPGDPSVYRVSATFSKTLASAGGS [r8_479_JUSTAS]	1.9 ± 0.1 kcal/mol	1.91 ± 0.038 kcal/mol	1.87 ± 0.15 kcal/mol
SAGGNRIMFFFDTPEQAREIAKELAKNFPGYKLDVEVHTQEMKVKDPDNGEEQRYPMVMVEIEIKPPSAGGS [r16_828_TrROS]	1.44 ± 0.13 kcal/mol	1.6 ± 0.049 kcal/mol	1.52 ± 0.17 kcal/mol
SAGGNWKIRNPKNGRTIEIDNFNPGNGMFRVKVWNPNGNKEEHPIPGSLEEILEFLQKKGWPVEIERSAGGS [r16_748_TrROS]	0.888 ± 0.2 kcal/mol	0.27 ± 0.21 kcal/mol	0.626 ± 0.23 kcal/mol
SAGGNWPMRIKIEDPGEEKTIPIPITKVEPNPPPGKLMIFWPDGWVLTFDPKNWRIKKIEPMPDPDEMSAGG [r13_636_TrROS]	0.822 ± 0.13 kcal/mol	0.942 ± 0.084 kcal/mol	1.05 ± 0.37 kcal/mol
SAGGNWRIRVKIEGPDGKTVNHWFWIPNLEDLLSFIQSQPGPKIKDVEIEPPPKDKQYYIPFTMTIPPSAGG [r13_796_TrROS]	1.87 ± 0.11 kcal/mol	1.72 ± 0.031 kcal/mol	1.8 ± 0.11 kcal/mol
SAGGPDDMKIIEETTIRFPENGMQFNIRIYKLPDNDVFIEAEMIMPNGKPVGRMEARVPNGKPIEIPFSAGG [r13_573_TrROS]	1.64 ± 0.12 kcal/mol	0.854 ± 0.04 kcal/mol	1.36 ± 0.087 kcal/mol
SAGGPDLVPVARAVYRIDVPPDRTAEEVRREIEERLRPLGVRRVVVPVFYDPERGYLLVVAEVYRSPEESAG [r5_924_TrMRF]	2.17 ± 0.1 kcal/mol	1.82 ± 0.036 kcal/mol	2.06 ± 0.081 kcal/mol
SAGGPEIRLRVRRPVRLTRRELLPDGTWRTLPARPGYEELEITFTGPEETARRLREELERLGYEVEEVSAGG [r13_452_TrMRF]	2.84 ± 0.066 kcal/mol	1.76 ± 0.056 kcal/mol	2.44 ± 0.12 kcal/mol

Sequence	folding stability dG unfold [1]	folding stability dG unfold [2]	folding stability dG unfold [3]
SAGGPEIVKLDFTLDPNGNLVFTFELKDGTKYEIKINPENPTIEIKEIEKIEPKPIPEDDPELLKEKSAGGS [r16_482_TrMRF]	3.24 ± 0.059 kcal/mol	1.54 ± 0.17 kcal/mol	2.49 ± 0.78 kcal/mol
SAGGPENARPVTFTVTLPDGDVVPITVTEHPDGTVTVTVTVLRFDGAEPVPATATITVPAEVVRRLFSAGGS [r16_470_TrMRF]	2.636 ± 0.023 kcal/mol	2.15 ± 0.035 kcal/mol	2.48 ± 0.034 kcal/mol
SAGGPEVKILSKSYNPEKNTVTYNLEVYYGGKKYGALAEIHYDPKTGKYTITVYYPDKPDYKETLTFNSAGG [r13_615_TrMRF]	3.03 ± 0.079 kcal/mol	1.91 ± 0.077 kcal/mol	2.58 ± 0.21 kcal/mol
SAGGPEVVLTVTVKVPPEMTPEEVAQRLADELRKKYPDLKVEVVSVEYDEETKEVTVTIRVTYAPPPSAGGS [r8_26_TrROS_Hall]	4.05 ± 0.16 kcal/mol	4.97 ± 0.64 kcal/mol	4.45 ± 0.14 kcal/mol
SAGGPFRIEDISIQRDPDNGKLTIIIPFPAPPGQEIKIKVRDPGNGKEKKFDMKVEPLPNGYLTMTISAGGS [r8_195_TrROS]	2.17 ± 0.11 kcal/mol	1.82 ± 0.14 kcal/mol	1.91 ± 0.21 kcal/mol
SAGGPFYLRIKIVDEDGKEITYMFPAPADEAEEEIEELLPGWPLKIDEVERFPGEPGYIMVTIKIPPNSAGG [r13_832_TrROS]	2.07 ± 0.17 kcal/mol	1.63 ± 0.051 kcal/mol	1.97 ± 0.12 kcal/mol
SAGGPGEEYKHPNGMAMRRDPENGKVEMRKVPPIPIEIKIEIDPALGWIRLSITIPNGKKIEFTFPFSAGGS [r16_453_TrROS]	4.11 ± 0.32 kcal/mol	2.36 ± 0.052 kcal/mol	3.32 ± 0.2 kcal/mol
SAGGPGMKMEPIAQIEFPGGRKITIHRMEMPNGNKMVNVNIMNPNGKTKTVMVPMGDIDEAIDALKLSAGGS [r16_588_TrROS]	1.04 ± 0.07 kcal/mol	1.65 ± 0.036 kcal/mol	1.29 ± 0.12 kcal/mol
SAGGPGTREVEITIPADELREEHPNLTDEELVEEVMELARGIAQEQGYPIKKVDITHDKDGWVTIKLSAGGS [r8_368_TrROS]	0.152 ± 0.11 kcal/mol	0.383 ± 0.091 kcal/mol	0.322 ± 0.16 kcal/mol
SAGGPGWQRIAKWEIPLPNGKDITIEPYYVNPNNNHYMYEIEIGDGKEIPFWVPPGDSPEDALDAILKSAGG [r13_470_TrROS]	-0.126 ± 0.32 kcal/mol	-0.194 ± 0.2 kcal/mol	-0.118 ± 0.16 kcal/mol
SAGGPGWRTINIPVWFKPGDSLDEIEEKARELVDPIADRNGLDIEVNIEVERDPDGYYRFNVQITVPSAGGS [r16_279_TrROS]	2.34 ± 0.071 kcal/mol	1.27 ± 0.097 kcal/mol	1.96 ± 0.13 kcal/mol
SAGGPITITIKTKNGKELELKLPGIRSVQFNPDSVWIAFKFPDQYIMIQINPPNGKIMIQIMPPGQPISAGG [r13_392_TrROS]	3.66 ± 0.053 kcal/mol	2.47 ± 0.097 kcal/mol	3.18 ± 0.14 kcal/mol
SAGGPKITIMWPEGMPPEELENFLKKLNPNYKVEYRPMPPEDMKDMPPGDVVISIPFDGRYWYLRIKPSAGG [r13_649_TrROS]	1.99 ± 0.095 kcal/mol	1.65 ± 0.048 kcal/mol	1.88 ± 0.081 kcal/mol
SAGGPKKITIHITEMYRNKNGPYYYRVEIRDGGKPKEYNFPFDSPDEMLDNIEKLADELGLKVEIEPFSAGG [r13_750_TrROS]	2.16 ± 0.16 kcal/mol	1.55 ± 0.06 kcal/mol	1.88 ± 0.22 kcal/mol
SAGGPKWVIIIEIEIKPKNNGKEFEFTFVFPPGQTLDEIKSFIKEFAPPGHKVELKIEDIQLVPPDDSAGGS [r16_393_TrROS]	2.41 ± 0.039 kcal/mol	2.2 ± 0.15 kcal/mol	2.4 ± 0.12 kcal/mol
SAGGPLGNLTLDQIVDLVREAFPDLPVRVDVEPIDEETGYVRVTVEPPLPNGGTARAEFILPILPDDSAGGS [r16_564_TrMRF]	1.26 ± 0.066 kcal/mol	0.787 ± 0.019 kcal/mol	1.07 ± 0.076 kcal/mol
SAGGPLQIKVEPLNRDPKDGKREVRIEITFPEEDMKKNPENRQLAEYIAKSLAKEPGADKVEVDIHWSAGGS [r16_416_TrROS]	0.441 ± 0.081 kcal/mol	-0.0287 ± 0.056 kcal/mol	0.274 ± 0.095 kcal/mol
SAGGPLRIHISIENPNGKTLTYQIPLPPGDPEEAVKEIADEMKERGGTITSIEIENGVITITVRIPPSAGGS [r16_662_TrROS]	2.97 ± 0.046 kcal/mol	2.32 ± 0.059 kcal/mol	2.8 ± 0.075 kcal/mol
SAGGPLTEEQLKEQAKQIKDQLAKEFADMNGFPVTEIDDVEVVPDGWISIEIEYPGMGMPYTITIPWSAGGS [r16_622_TrROS]	1.02 ± 0.16 kcal/mol	0.887 ± 0.053 kcal/mol	1.02 ± 0.095 kcal/mol
SAGGPNIRIDINLMPHPGKPYIMVRIEIPNGYKREIMFNPDDGKISIEIRYPGKEEKIEFPLDDIKPISAGG [r13_328_TrROS]	4.7 ± 0.3 kcal/mol	3.48 ± 0.5 kcal/mol	4.42 ± 0.32 kcal/mol
SAGGPNKPIKIKIMIWRDPGGWYIAIRIPDGNTRMFKSPEQIKSILEKFPGLKIDEIEIIPPDQMKKLSAGG [r13_730_TrROS]	2.23 ± 0.073 kcal/mol	1.7 ± 0.025 kcal/mol	2 ± 0.079 kcal/mol
